Values quoted from earlier work, collected in publication PMC3774674.

Target: E-cadherin EC12 (Mus musculus) (UniProt P09803)

For E-cadherin EC12 (from UniProt P09803), the Kd is given as 98.6 µM.
